Measurements taken from paper PMC9340540 (2022).

T1: CHN-1 (C. elegans)
T1 chain: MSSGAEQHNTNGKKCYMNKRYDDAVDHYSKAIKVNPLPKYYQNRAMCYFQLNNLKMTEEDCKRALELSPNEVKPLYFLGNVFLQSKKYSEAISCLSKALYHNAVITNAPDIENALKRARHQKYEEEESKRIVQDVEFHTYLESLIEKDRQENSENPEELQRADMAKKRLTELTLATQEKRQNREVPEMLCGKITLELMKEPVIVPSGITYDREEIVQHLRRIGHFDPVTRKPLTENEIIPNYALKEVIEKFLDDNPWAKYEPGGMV


Molecular target: T1, CHN-1
Test: ELISA

Binder | Kd
HSP-1::6xHis (natural protein) not shown | 12.2 nM
UFD-2 (enzyme) MIEDEKAGLQPMDISDASVFFFQADVESKDFLTSLFDCEGKSDDRMLRYADAIIDVQNLNFDVSPQCLQSNIAEIITKFVLLSQDGSRRGLSRSFNFIDPDIIAGCREEDAIEFLLINFVRCHHELGKSGTSNCYKKTLESTRKAVFSVFVMIQRGYLESQLRSQHASLVFTKRLLEDTVSNVFLRTLVEYLASTDECDEDAITETFNPIFGILRSGIICQRFEDNKDEIVRQILRVMNLLLSIRLPSNGPRPLSNLLVNREDFLPTPSEKIQGREFGLMSFLGPFFSYGLESSARRPNHRVFVDCEEDARKYDGSVNTEQKLYFQRMDPIRTMLHQLMLPLASDQGSRNKTLRWIATIISTNDIRTRSHYDPSDVLCDHYMTNFLSVMYMFSEKIDLSKIIVDYPFLPSSLINISKETRLKMDESGAVAFASQFADRPDEYHFSTVCFFLTIAAQRLVIPPLMNQISEYSRHLKELKHKINALKEKLNTVSGFERAEVEKKLNYETEHWKLMSRHLLCVKTQAQDPALMASSMDFVDKQMKFILNLLCDNLDLLGDDSQLPTEVSQMFCALPEYFLEDALDFYIFAISNGMKLLMERNADWISRLTVLFTQYHYIKSPFLVSKLVRVLSSIQPPLWFNVVRLRMAQENLLMCMIKFYSDFEDNGDFYEKFNVRGNIQYMLEKMEEDMFYKGKFMDMARECGAEFIRFVNMVINDATWCIDESLSGLKSIHDVEKKMANKVEWDNTDQEIRNQDLGVYEEAKRKVKGWLGTAKSNLKLLLSITVNSPEPFRTPVLGERLAAMLNHNLSQLIGSKASELKVKDPRSYGWEPREFVSLLISIYLKLNMPAFVKYIAYDERTYSPEFFHNAIECMRKNSIVGFSQLESFEHLAEDVKKEYEAKAELEEEYDDVPEEFKDPIMDAIMVDPVKLPSGHVMDRAVIERHLLSTPNNPFNRAPLSHNELSPDSELKAKIQEWICQKRNSKK | 37.8 nM
